The results in this text go back to patent publication US20210101947A1 (UNIVERSITY OF SASKATCHEWAN, published 2021).

This experiment has as its target T1, TAT2 cell penetrating peptide.
T1 construct: Synthesized; two copies of a 9 amino acid TAT peptide
T1 peptide: RKKRRQRRRRKKRRQRRR
Put plainly: peptides mixed; uptake into MDA-MB-231 cells seen by fluorescence microscopy. As to the method:
B. Using 0.1 mg/ml C43-4-FITC, weak toxicity is only observed when combined with TAT2, which is worsened with DOX. An equal number of cells were treated with TAT2 and C43-4-FITC alone or in complex, +/−0.5 uM DOX. 24 hours later, 4 random fields of cells were counted and combined. C. MDA-MB-231 cells were treated with 0.001 mg/ml peptide/TAT2 complex for 12 hours, or left untreated. Lysates were prepared and assessed with the antibodies shown. Cyclin B—APC substrate; the PARP […] cleavage fragment is an early sign of apoptosis; induction of total PARP indicates DNA damage; TFPI1 is a nucleolar MDR marker. D. Mice growing MDA-MB-231 cells stably expressing pcDNA-C43-4, injected or left untreated, with the C43-4-FITC/TAT2 complex (n=2 each). 100 ul of 0.01 mg/ml C43-4-FITC peptide was mixed with 25 ul of 1 mg/ml TAT2. The entire 125 ul was given to the mouse using an intraperitoneal (IP) injection. 1 injection/mouse was given in this experiment.
The 20 amino acid C43-4 peptide was synthesized with a C-terminal FITC epitope to allow visualization of the peptide within the cell using fluorescent microscopy. The TAT2 cell penetrating peptide, encoding 2 copies of a 9 amino acid peptide ([…]; SEQ ID NO: 26) was also synthesized. […] After 24 hours, and prior to imaging, 4 independent microscope fields were counted for each sample and added together to get a total cell number. […]

Primed or numbered codes have the meaning given here. No end group written: not given here. FITC′ = not defined here

B1: C43-4-FITC (peptide)
peptide: NGSSHNDLRVRRLTLISRLC-{FITC′}
notes: The synthesized 20 amino acid C43-4 peptide with a C-terminal FITC; also called C43-4-FITC peptide
For the molecule B1, the binding result is on record as “binds”.
